Measurements as given in US20200131274A1 (CRESCENDO BIOLOGICS, published 2020).
Substitutions are numbered along the chain they refer to. Names may count otherwise. Like-named read-outs stand apart in the source and are kept apart here.

Columns and labels:
[1] = target: T1, human prostate specific membrane antigen (PSMA), full-length, on cells (human, UniProt Q04609 1-750); experiment: cell-based or functional assay
[2] = target: T1, human prostate specific membrane …; experiment: cell-based or functional assay; remark: listed apart in the source
[3] = target: T1, human prostate specific membrane …; experiment: cell-based or functional assay; remark: listed apart in the source
[4] = target: T2, cynomolgus PSMA, full-length, on CHO cells (cynomolgus, UniProt A0A2K5VNZ0 1-750); experiment: cell-based or functional assay
[5] = target: T1, human prostate specific membrane …; experiment: FMAT direct cell binding, human PSMA-CHO cells
[6] = target: T1, human prostate specific membrane …; experiment: cell-based or functional assay; remark: listed apart in the source
[7] = target: T3, recombinant human PSMA (R&D, cat. no. 4234-ZN) (human, UniProt Q04609 44-750); experiment: Octet RED384 BLI, PSMA on sensor, VH series from 0.375 ug/ml
T3 construct: Bought protein; also called rhPSMA; Recombinant PMSA
T3 sequence (Q04609 44-750 limits assumed): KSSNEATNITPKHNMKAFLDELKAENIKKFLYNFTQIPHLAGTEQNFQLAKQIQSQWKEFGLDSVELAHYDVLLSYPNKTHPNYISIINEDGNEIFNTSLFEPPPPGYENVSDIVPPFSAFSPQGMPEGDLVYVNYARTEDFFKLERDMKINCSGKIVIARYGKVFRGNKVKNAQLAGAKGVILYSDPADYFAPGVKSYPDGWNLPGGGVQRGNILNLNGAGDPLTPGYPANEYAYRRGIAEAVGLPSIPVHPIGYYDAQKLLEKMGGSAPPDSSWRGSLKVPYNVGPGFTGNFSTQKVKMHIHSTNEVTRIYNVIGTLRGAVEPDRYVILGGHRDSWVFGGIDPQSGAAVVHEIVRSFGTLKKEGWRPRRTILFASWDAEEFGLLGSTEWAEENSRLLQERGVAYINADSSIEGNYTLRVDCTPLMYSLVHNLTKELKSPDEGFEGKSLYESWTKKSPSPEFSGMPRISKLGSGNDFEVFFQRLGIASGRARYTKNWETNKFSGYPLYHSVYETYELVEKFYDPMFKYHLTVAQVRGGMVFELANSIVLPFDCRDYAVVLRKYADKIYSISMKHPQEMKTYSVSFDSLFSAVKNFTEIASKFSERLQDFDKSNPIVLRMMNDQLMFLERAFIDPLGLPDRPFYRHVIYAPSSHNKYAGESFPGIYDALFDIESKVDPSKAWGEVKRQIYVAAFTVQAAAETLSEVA

[8] = target: T1, human prostate specific membrane …; experiment: cell-based or functional assay; remark: listed apart in the source
[9] = target: T2, cynomolgus PSMA, full-length, on CHO …; experiment: FMAT direct cell binding, CHO cyno PSMA cells
[10] = target: T1, human prostate specific membrane …; experiment: FMAT direct cell binding, LNCap cells
[11] = target: T1, human prostate specific membrane …; experiment: FMAT direct cell binding, CHO human PSMA cells
[12] = target: T1, human prostate specific membrane …; experiment: FMAT direct cell binding, DU145 PSMA cells
[13] = target: T3, recombinant human PSMA (R&D, cat. no. …); experiment: Octet RED384 BLI, PSMA on sensor, VH series from 0.375 ug/ml; remark: listed apart in the source

T1 sequence (Q04609 whole entry): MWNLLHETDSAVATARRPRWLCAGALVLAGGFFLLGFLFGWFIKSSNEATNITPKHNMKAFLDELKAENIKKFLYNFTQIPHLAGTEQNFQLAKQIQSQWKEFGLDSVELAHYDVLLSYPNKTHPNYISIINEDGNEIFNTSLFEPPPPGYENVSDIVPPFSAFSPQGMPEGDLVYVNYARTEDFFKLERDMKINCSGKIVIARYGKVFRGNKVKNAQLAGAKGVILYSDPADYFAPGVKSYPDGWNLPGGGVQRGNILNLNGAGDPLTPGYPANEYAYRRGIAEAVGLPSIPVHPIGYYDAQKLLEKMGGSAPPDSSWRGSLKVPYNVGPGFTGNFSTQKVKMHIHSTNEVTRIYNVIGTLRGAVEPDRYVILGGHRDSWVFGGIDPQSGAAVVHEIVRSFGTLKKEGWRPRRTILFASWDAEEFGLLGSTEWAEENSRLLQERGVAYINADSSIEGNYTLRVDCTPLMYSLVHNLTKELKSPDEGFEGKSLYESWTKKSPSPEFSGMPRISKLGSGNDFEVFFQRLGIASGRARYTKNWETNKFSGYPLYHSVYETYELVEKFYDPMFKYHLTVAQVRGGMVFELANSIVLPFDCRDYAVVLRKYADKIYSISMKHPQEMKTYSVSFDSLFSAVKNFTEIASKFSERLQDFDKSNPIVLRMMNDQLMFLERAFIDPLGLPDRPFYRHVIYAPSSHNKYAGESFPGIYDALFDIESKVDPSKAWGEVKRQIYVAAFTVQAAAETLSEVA

B1: HiPEG B-2-A-His6 val-cit-PAB-MMAE (bispecific antibody)
chain: EVQLLESGGGLVQPGGSLRLSCAASGFSFSSYAMSWVRQAPGKGLEWVSSIGENDGTTDYADSVKGRFTISRDNSKSMLYLQMNSLRVEDTAVYYCVKDGVHWGQGTLVTVSSGGGGSGGGGSGGGGSGGGGSGGGGSGGGGSEVQLVESGGGVVQPGRSLRLSCAASGFSFSGYGMHWVRQAPGKGLEWVAYISYDGSNKYYADSVKGRFTISRDNSKNTLYLQMNSLRAEDTAVYYCAKDPAWGLRLGESSSYDFDIWGQGTMVTVSS
modifications: HiPEG val-cit-PAB-MMAE attached via the C-terminal His6-tag, DAR 1
IC50 Toxin (nM), DU145 PSMA cells, 48 h [1]: 0.15 nM | Mean IC50, cytotoxicity on DU145 PSMA cells, 48 h [1]: 0.15 nM | Mean Max % Cell kill, DU145 PSMA cells, 48 h [1]: 79% | IC50 (nM), PSMA-DU145 cytotoxicity assay (72 h) [2]: 0.27 nM | IC50 (toxin) (nM), PSMA-DU145 cytotoxicity assay (72 h) [2]: 0.27 nM

B2: 1.16-6GS-2.22 (bispecific antibody)
chain: B1 chain with M34L, D55N, G56H, S63T, S77N, M78T, M177T, D205A, S206P, P243A
notes: linker (G4S)6
His-ZAP cell killing, human PSMA Average EC50 [3]: 0.02 nM | His-ZAP cell killing, cyno PSMA Average EC50 [4]: 0.011 nM | EC50 [5]: 0.225 nM

B3: 1.18-6GS-2.1 (bispecific antibody)
chain: B1 chain with M34L, D55N, G56A, D62A, S77N, M78T
notes: linker (G4S)6
His-ZAP cell killing, human PSMA Average EC50 [3]: 0.0057 nM | His-ZAP cell killing, cyno PSMA Average EC50 [4]: 0.0058 nM | EC50 [5]: 0.294 nM

B4: 1.11-6GS-2.22 (bispecific antibody)
chain: B1 chain with M34L, D55N, G56D, S63N, S77N, M78T, M177T, D205A, S206P, P243A
notes: linker (G4S)6; also called 1.11-2.22; 1.11-6GS-2.22His
His-ZAP cell killing, human PSMA Average EC50 [3]: 0.01 nM | His-ZAP cell killing, cyno PSMA Average EC50 [4]: 0.0095 nM | EC50 [5]: 0.219 nM

B5: 1.18-6GS-2.17 (bispecific antibody)
chain: B1 chain with M34L, D55N, G56A, D62A, S77N, M78T, G198A, S206N
notes: linker (G4S)6
His-ZAP cell killing, human PSMA Average EC50 [3]: 0.012 nM | His-ZAP cell killing, cyno PSMA Average EC50 [4]: 0.0056 nM | EC50 [5]: 0.278 nM

B6: 1.18-6GS-2.22 (bispecific antibody)
chain: B1 chain with M34L, D55N, G56A, D62A, S77N, M78T, M177T, D205A, S206P, P243A
notes: linker (G4S)6
His-ZAP cell killing, human PSMA Average EC50 [3]: 0.015 nM | His-ZAP cell killing, cyno PSMA Average EC50 [4]: 0.014 nM | EC50 [5]: 0.196 nM

B7: single VH domain antibody 2.12 (VHH)
VHH: EVQLVESGGGVVQPGRSLRLSCAASGFSFSGYGMHWVRQAPGKGLEWVAYISYDKSNKYYADKVKGRFTISRDNSKNTLYLQMNSLRAEDTAVYYCAKDPAWGLRLGESSSYDFDIWGQGTMVTVSS
notes: Human single VH domain antibody (Humabody); C-terminal His tag, residues not tied
His-ZAP cell killing, human PSMA Average EC50 [3]: 0.016 nM | His-ZAP cell killing, cyno PSMA EC50 [4]: 0.091 nM | pHrodo Green internalization assay, human PSMA Average EC50 (M) [6]: 5.3e-10 M | Kd [7]: 1.56 nM | koff [7]: 0.00157 s⁻¹

B8: HiPEG A-His6 val-cit-PAB-MMAE (VHH)
VHH: B7 VHH with K55G, K63S
modifications: HiPEG val-cit-PAB-MMAE attached via the C-terminal His6-tag, DAR 1
IC50 (nM), cytotoxicity on DU145 PSMA cells, 72 h [8]: 0.55 nM | IC50 (toxin) nM, DU145 PSMA cells, 72 h [8]: 0.55 nM | IC50 Toxin (nM), DU145 PSMA cells, 48 h [1]: 1.16 nM | Mean IC50, cytotoxicity on DU145 PSMA cells, 48 h [1]: 1.2 nM | Mean Max % Cell kill, DU145 PSMA cells, 48 h [1]: 74%

B9: single VH domain antibody 2.14 (VHH)
VHH: B7 VHH with M34V, K55A, K63N
notes: as for B7
EC50 [9]: 0.427 nM | EC50 [10]: 0.0332 nM | EC50 [11]: 0.11 nM | EC50 [12]: 0.202 nM

B10: single VH domain antibody 2.18 (VHH)
VHH: B7 VHH with M34Q, K55A, K63N
notes: as for B7
EC50 [9]: 0.337 nM | EC50 [10]: 0.0354 nM | EC50 [11]: 0.104 nM | EC50 [12]: 0.25 nM

B11: single VH domain antibody 2.13 (VHH)
VHH: B7 VHH with M34L, K55A, K63N
notes: as for B7
His-ZAP cell killing, human PSMA Average EC50 [3]: 0.027 nM | His-ZAP cell killing, cyno PSMA EC50 [4]: 0.08 nM | pHrodo Green internalization assay, human PSMA Average EC50 (M) [6]: 5.8e-10 M | Kd [7]: 0.99 nM | koff [7]: 0.000743 s⁻¹

B12: HiPEG D-His6 val-cit-PAB-MMAE (VHH)
VHH: EVQLLESGGGLVQPGGSLRLSCAASGFRISDEDMGWVRQAPGKGLEWVSSIYGPSGSTYYADSVKGRFTISRDNSKNTLYLQMNSLRAEDTAVYYCASALEPLSEPLGFWGQGTLVTVSS
modifications: HiPEG val-cit-PAB-MMAE attached via the C-terminal His6-tag
Mean IC50, cytotoxicity on DU145 PSMA cells, 48 h [1]: > 300 nM | IC50 (nM), PSMA-DU145 cytotoxicity assay (72 h) [2]: > 100 nM | IC50 (toxin) (nM), PSMA-DU145 cytotoxicity assay (72 h) [2]: > 100 nM

B13: single VH domain antibody 1.10 (VHH)
VHH: EVQLLESGGGLVQPGGSLRLSCAASGFSFSSYALSWVRQAPGKGLEWVSSIGENNATTDYADFVKGRFTISRDNSKNTLYLQMNSLRVEDTAVYYCVKDGVHWGQGTLVTVSS
notes: Human single VH domain antibody (Humabody)
EC50 [9]: 0.152 nM | His-ZAP cell killing, human PSMA Average EC50 [3]: 0.021 nM | His-ZAP cell killing, cyno PSMA EC50 [4]: 1.3 nM | pHrodo Green internalization assay, human PSMA Average EC50 (M) [6]: 6.4e-10 M | Kd [13]: 0.67 nM | koff [13]: 0.000418 s⁻¹ | EC50 [10]: 0.133 nM | EC50 [11]: 0.0718 nM | EC50 [12]: 0.067 nM

B14: HiPEG B-His6 val-cit-PAB-MMAE (VHH)
VHH: B13 VHH with L34M, N55D, A56G, F63S, N77S, T78M
modifications: HiPEG val-cit-PAB-MMAE attached via the C-terminal His6-tag, DAR 0.9
IC50 (nM), cytotoxicity on DU145 PSMA cells, 72 h [8]: 4.1 nM | IC50 (toxin) nM, DU145 PSMA cells, 72 h [8]: 3.69 nM | IC50 Toxin (nM), DU145 PSMA cells, 48 h [1]: 2.43 nM | Mean IC50, cytotoxicity on DU145 PSMA cells, 48 h [1]: 2.7 nM | Mean Max % Cell kill, DU145 PSMA cells, 48 h [1]: 73%

B15: single VH domain antibody 1.14 (VHH)
VHH: B13 VHH with F63V
notes: as for B13
EC50 [9]: 0.145 nM | His-ZAP cell killing, human PSMA Average EC50 [3]: 0.017 nM | His-ZAP cell killing, cyno PSMA EC50 [4]: 0.79 nM | pHrodo Green internalization assay, human PSMA Average EC50 (M) [6]: 4.4e-10 M | Kd [13]: 0.46 nM | koff [13]: 0.000335 s⁻¹ | EC50 [10]: 0.0833 nM | EC50 [11]: 0.0588 nM | EC50 [12]: 0.052 nM

B16: single VH domain antibody 1.13 (VHH)
VHH: B13 VHH with A56H, D62A, F63D
notes: as for B13
EC50 [9]: 0.115 nM | EC50 [10]: 0.0386 nM | EC50 [11]: 0.0513 nM | EC50 [12]: 0.0456 nM

B17: HiPEG B-1-A-His6 val-cit-PAB-MMAE (bispecific antibody)
chain: EVQLLESGGGLVQPGGSLRLSCAASGFSFSSYAMSWVRQAPGKGLEWVSSIGENDGTTDYADSVKGRFTISRDNSKSMLYLQMNSLRVEDTAVYYCVKDGVHWGQGTLVTVSSGGGGSGGGGSEVQLVESGGGVVQPGRSLRLSCAASGFSFSGYGMHWVRQAPGKGLEWVAYISYDGSNKYYADSVKGRFTISRDNSKNTLYLQMNSLRAEDTAVYYCAKDPAWGLRLGESSSYDFDIWGQGTMVTVSS
modifications: HiPEG val-cit-PAB-MMAE attached via the C-terminal His6-tag, DAR 1
IC50 (nM), cytotoxicity on DU145 PSMA cells, 72 h [8]: 0.1 nM | IC50 (toxin) nM, DU145 PSMA cells, 72 h [8]: 0.1 nM | IC50 Toxin (nM), DU145 PSMA cells, 48 h [1]: 0.13 nM | Mean IC50, cytotoxicity on DU145 PSMA cells, 48 h [1]: 0.13 nM | Mean Max % Cell kill, DU145 PSMA cells, 48 h [1]: 79%
